Experimental data: the supplement of paper PMC9233669
This sample holds only a part of the variants without activity.

Legend:
[1] = test system: biotinyl-Trp-oxazolone; experiment: self-aminoacylation, catalytic enhancement (BWO) (fold over background); higher = more active; k-Seq, kA / k0A0; sequences stand for … in GGGAAUGGAUCCACAUCUACGAAUUC…UUCACUGCAGACUUGACGAAGCUG
Summary of the method: (§1)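 Each biotinyl-aminoacyl-oxazolone, at 2–1250 μM, was incubated with mutagenized RNA pools (0.43 μM) carrying a 21-nt variable region. The 50 μL reactions contained HEPES/NaCl/KCl/MgCl2/CaCl2 buffer with 5% acetonitrile at pH 6.9–7.0 and ran for 90 minutes at room temperature. After streptavidin capture, RNA was measured by qPCR in triplicate and by Illumina sequencing, and catalytic enhancement was calculated as median kA over the uncatalyzed rate from a pseudo-first-order fit of per-sequence fraction reacted.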

[2] = test system: biotinyl-Leu-oxazolone; experiment: self-aminoacylation, catalytic enhancement (BLO) (fold over background); higher = more active; k-Seq, kA / k0A0; sequences stand for … in GGGAAUGGAUCCACAUCUACGAAUUC…UUCACUGCAGACUUGACGAAGCUG
Summary of the method: as §1

[3] = test system: biotinyl-Ile-oxazolone; experiment: self-aminoacylation, catalytic enhancement (BIO) (fold over background); higher = more active; k-Seq, kA / k0A0; sequences stand for … in GGGAAUGGAUCCACAUCUACGAAUUC…UUCACUGCAGACUUGACGAAGCUG
Summary of the method: as §1

[4] = test system: biotinyl-Met-oxazolone; experiment: self-aminoacylation, catalytic enhancement (BMO) (fold over background); higher = more active; k-Seq, kA / k0A0; sequences stand for … in GGGAAUGGAUCCACAUCUACGAAUUC…UUCACUGCAGACUUGACGAAGCUG
Summary of the method: as §1

[5] = test system: biotinyl-Phe-oxazolone; experiment: self-aminoacylation, catalytic enhancement (BFO) (fold over background); higher = more active; k-Seq, kA / k0A0; sequences stand for … in GGGAAUGGAUCCACAUCUACGAAUUC…UUCACUGCAGACUUGACGAAGCUG
Summary of the method: as §1

[6] = test system: biotinyl-Val-oxazolone; experiment: self-aminoacylation, catalytic enhancement (BVO) (fold over background); higher = more active; k-Seq, kA / k0A0; sequences stand for … in GGGAAUGGAUCCACAUCUACGAAUUC…UUCACUGCAGACUUGACGAAGCUG
Summary of the method: as §1

Sequence | self-aminoacylation [1] | self-aminoacylation [2] | self-aminoacylation [3] | self-aminoacylation [4] | self-aminoacylation [5] | self-aminoacylation [6]
AUUCCCCUGGUCUUCGAGUGA [Fam2.1 aminoacylation ribozyme variant] | 11.8 | 9.91 | 5.69 | 9.43 | 64.6 | 5.87
AUUCCCCUGGUGAUCGAGUGA [Fam2.1 aminoacylation ribozyme variant] | 6.06 | 5.91 | 3.12 | 5.51 | 36.9 | 3.13
AUUCGCCUAAGUCAUCGGGUG [Fam2.2 aminoacylation ribozyme variant] | 11.7 | 15.6 | 7.83 | 12.9 | 117 | 7.95
AUUCGCCUAGGCCAUCGGGUG [Fam2.2 aminoacylation ribozyme variant] | 4.7 | 5.27 | 3.15 | 4.46 | 35.5 | 4.16
AUUCGCCUAGGGCAUCGGGUG [Fam2.2 aminoacylation ribozyme variant] | 4.92 | 5.64 | 3.24 | 5.3 | 26.1 | 3.45
AUUCGCCUAGGUCAACGGGUG [Fam2.2 aminoacylation ribozyme variant] | 3.75 | 6.03 | 2.76 | 4.66 | 27.8 | 2.72
AUUCGCCUAGGUCAGCGGGUG [Fam2.2 aminoacylation ribozyme variant] | 5.11 | 5.95 | 3.91 | 5.21 | 37.8 | 3.96
AUUCGCCUAGGUCAUCGCGUG [Fam2.2 aminoacylation ribozyme variant] | 17.6 | 23.4 | 10 | 19.2 | 126 | 10.9
AUUCGCCUAGGUCAUCGGCUG [Fam2.2 aminoacylation ribozyme variant] | 2.11 | 2.16 | 2.08 | 1.95 | 6.51 | 2.16
AUUCGCCUAGGUCAUCGGGUU [Fam2.2 aminoacylation ribozyme variant] | 10.8 | 20.5 | 8.6 | 14.1 | 75.6 | 7.13
AUUCGCCUAGGUCGUCGGGUG [Fam2.2 aminoacylation ribozyme variant] | 1.51 | 2.18 | 1.56 | 2.28 | 11.6 | 2.22
AUUCGCCUAGUUCAUCGGGUG [Fam2.2 aminoacylation ribozyme variant] | 3.62 | 3.82 | 2.26 | 2.85 | 16.2 | 2.8
AUUCGCCUUGGUCAUCGGGUG [Fam2.2 aminoacylation ribozyme variant] | 8.13 | 9.99 | 5 | 8.81 | 74.5 | 6.21
AUUCGCGUAGGUCAUCGGGUG [Fam2.2 aminoacylation ribozyme variant] | 7.24 | 8.56 | 5.25 | 8.32 | 57.5 | 4.87
AUUCGUCUAGGUCAUCGGGUG [Fam2.2 aminoacylation ribozyme variant] | 6.11 | 5.27 | 4.9 | 4.96 | 43.2 | 4.85
AUUCUCCUACGUCAUCGGGUG [Fam2.2 aminoacylation ribozyme variant] | 6.69 | 9.67 | 4.89 | 6.97 | 57.3 | 5.36
AUUCUCCUAGAUCAUCGGGUG [Fam2.2 aminoacylation ribozyme variant] | 4.66 | 5.3 | 3.28 | 4.32 | 34.7 | 2.68
AUUCUCCUAGGUCAUCUGGUG [Fam2.2 aminoacylation ribozyme variant] | 4.16 | 5.43 | 3.03 | 4.5 | 30 | 2.91
AUUCUUCAAACAAUCGGUCUG [Fam1A.1 aminoacylation ribozyme variant] | 1.27 | 0.682 | 0.672 | 0.63 | 1.66 | 0.663
AUUGACCCAGGUCAUCGGGUG [Fam2.2 aminoacylation ribozyme variant] | 5.64 | 6.54 | 3.6 | 4.74 | 34.9 | 3.31
AUUGACCUAAGUCAUCGGGUG [Fam2.2 aminoacylation ribozyme variant] | 9.4 | 12.1 | 5.64 | 7.6 | 56.8 | 5.26
AUUGACCUAGGACAUCGGGUG [Fam2.2 aminoacylation ribozyme variant] | 4.97 | 4.56 | 3.72 | 4.19 | 19.3 | 3.53
AUUGACCUAGGUAAUCGGGUG [Fam2.2 aminoacylation ribozyme variant] | 3.73 | 3.86 | 3.19 | 2.92 | 15 | 3
AUUGACCUAGGUCAUAGGGUG [Fam2.2 aminoacylation ribozyme variant] | 1.81 | 1.61 | 1.58 | 1.27 | 1.72 | 1.46
AUUGACCUAGGUCAUCCGGUG [Fam2.2 aminoacylation ribozyme variant] | 5.12 | 4.69 | 3.31 | 4.88 | 28.3 | 3.31
